# Measured values reported in patent publication US10494417B2, “Peptide inhibitors of BCR-ABL oligomerization” (University of Utah Research Foundation, priority 2014, dated 2019).
# “Also recorded” adds a separate entry of the source.
# Key:
# [1] = test system: CD34+ cells from newly diagnosed CML patients; assay: Colony forming assay of CD34+ cells from newly diagnosed CML patients; format: cell-based, human; details: for colony formation, in words: day 14 CFU-GM, lentiviral CCmut3 or 2.5 μM imatinib vs EV
# Experimental: Primary cells were seeded in Methocult H4230 (Stem Cell Technologies) as described previously (Fleischman, A. G., et al. (2011). Blood 118, 6392-6398). Briefly, lentivirus-infected (GFP^+) cells were isolated by FACS and resuspended in RPMI1640. Cells were plated in Methocult H4230 at 1,000 cells/mL supplemented with 1× StemSpan CC100 cytokine mix (StemCell Technologies) with or without TKI as indicated in each experiment. Plates were incubated at 37° C. in a 5% CO2 humidified incubator for 14 days. Colony forming units of granulocyte-macrophage (CFU-GM) were counted on day 14 using an inverted microscope.
# (§1) Following selection of transfected cells by cell sorting, methylcellulose colony assays were performed by plating in 0.9% methylcellulose (Stem Cell Technologies; M3234 for Ba/F3 BCR-ABL1 native and mutant lines; M3434 for Ba/F3 parental cells; H4230 for CML patient samples). mCherry-positive Ba/F3 cells (1.1×10^3 cells/plate) or GFP-positive primary CML CD34+ cells (1×10^3 cells/plate) were seeded per dish in duplicate. In the case of CML patient samples, cells were plated in the presence of 1× StemSpan CC100 cytokine cocktail (StemCell Technologies). All cells were plated with or without the indicated TKI in three or more independent experiments. Plates were incubated at 37° C. in a 5% CO2 humidified incubator. Colonies were counted 7-14 days later in an area of 50 μm2 per dish using an inverted microscope.
# [2] = test system: Ba/F3 cells expressing BCR-ABL1E255V/T315I; assay: Colony forming assay of Ba/F3 BCR-ABL1 E255V/T315I cells; format: cell-based, mouse; details: for colony formation, in words: CCmut3 gene delivery (transfection; b502 lentiviral infection) vs EV
# Experimental: Following selection of transfected cells by cell sorting, viable cells were enumerated and seeded into methylcellulose as described previously (Dixon, A. S., et al. (2011) J. Biol. Chem. 286, 27751-27760). Briefly, mCherry-positive Ba/F3 cells were re-suspended in IMDM with 2% FBS (Stem Cell Technologies) at a concentration of 10,000 cells/mL. Three hundred microliters of this dilution was added to 3 mL of Methocult media (M3434—Ba/F3 p210 wild-type and mutant lines or M3234—Ba/F3 parental, Stem Cell Technologies). Approximately 1100 cells, or 1.2 mL, were seeded per dish in duplicate for each transfection. Colonies were counted 7 days later in an area of […] per dish.
# as §1
# parental Ba/F3 cells = assay: Annexin V/7-AAD apoptosis assay in transfected parental Ba/F3 cells; format: cell-based, mouse; details: 72 h, CCmut3 vs EV
# Experimental: For analysis of apoptosis and cell death, cells were pelleted and resuspended in Annexin V-binding buffer (BD Biosciences), stained with anti-Annexin V-APC (BD Biosciences or Life Technologies) and 7-AAD (BD Biosciences or Life Technologies) and analyzed on a BD FACSCanto flow cytometer. In addition to the APC and 7-AAD channels, GFP- and mCherry-positive cells were also recorded.
# For analysis of apoptosis and necrotic cell death, cells were pelleted and resuspended in Annexin V-binding buffer (BD Biosciences), stained with anti-Annexin V-APC and 7-AAD (BD Biosciences or Life Technologies) and analyzed on a BD FACSCanto flow cytometer. In addition to the APC and 7-AAD channels, GFP- and mCherry-positive cells were also recorded.
molecule,measurement,setting,value
"CCmut3: modified Bcr-Abl coiled-coil domain (residues 1-72) with mutations C38A, K39E, S41R, L45D, E48R, Q60E (protein) MVDPVGFAEAWKAQFPDSEPPRMELRSVGDIEQELERAEARIRRDEQRVNQERFRMIYLETLLAKEKKSYDR","colony formation, in words",[1],equally effective in reducing colony number
same,"colony formation, in words",[1]; listed as CC^mut3,reduced to similar degree
same,inhibition of colony formation,"[1]; four newly diagnosed patient samples, day 14, normalized to EV",~60%
same,"colony formation, in words",[2],again reduced
same,"colony formation, in words",[2]; listed as CC^mut3,reduced; also recorded: Inhibition in colony formation
same,reduction of CFCs / colony forming ability compared to EV,[2]; CCmut3 vs EV,approximately 50%
same,"apoptosis, in words",parental Ba/F3 cells,no effect on parental Ba/F3 cells; also recorded: no effect on the parental cell line
same,"apoptosis, in words",parental Ba/F3 cells; listed as CC^mut3,not affected; also recorded: no effect on the parental cells
